Results: US20080009021A1

Target: E3 His-ROC1/Cul1 complex (UniProt Q13616)
Assay: cell-based or functional assay

Q: Which amount of E3 giving maximum attachment of ubiquitin moiety to E3 (luminescence, nickel plate) (ng per 100 µl) does the source give for Flag-ubiquitin moiety here?
A: 200 to 300
